The text below walks through data of article PMC8080463.

B1: bFGF-PQS3 (ssDNA)
DNA: GGGGGCGCGGGAGGCTGGTGGGTGTGGGGGG
B2: bFGF-PQS1 (ssDNA)
DNA: GGGGTTGGGCGGGGGTGACTTTTGGGGGATAAGGGG
B3: bFGF-PQS6 (ssDNA)
DNA: GGAGCGGGTCGGAGG
B4: bFGF-PQS13 (ssDNA)
DNA: GGCCGGGCGGGAAGG
B5: bFGF-PQS15 (ssDNA)
DNA: GGGCACGGCCCCGGCCCCGG
B6: bFGF-PQS14 (ssDNA)
DNA: GGGCAAGGCGGGCAGCGTGG
B7: bFGF-PQS8 (ssDNA)
DNA: GGTTTCTGGCCGCGCGGCCCTCGG
B8: bFGF-PQS5 (ssDNA)
DNA: GGGAGGCTGGGGGGCCGGGGCCGGGG
B9: bFGF-PQS10 (ssDNA)
DNA: GGGCCGGGGGTACTGGTTTACAGG
B10: bFGF-PQS18 (ssDNA)
DNA: GGCCGCGGCAGGGCTTTGG
B11: bFGF-PQS4 (ssDNA)
DNA: GGCTCGAGGCTGGGGGACCGCGG
B12: bFGF-PQS2 (ssDNA)
DNA: GGGGGCGGCGCGCAGGAGGGAGG
B13: bFGF-PQS7 (ssDNA)
DNA: GGGCCGGGGCCGGGGGACGG
B14: bFGF-PQS11 (ssDNA)
DNA: GGAAAGGAGGGGG
B15: bFGF-PQS12 (ssDNA)
DNA: GGGAGGAGGGTGCAGGCTGGAGG
B16: bFGF-PQS9 (ssDNA)
DNA: GGCTGCGGCGTAGGCCCGGG
B17: bFGF-PQS17 (ssDNA)
DNA: GGGGGCGGGGGAGAGGCGAGGGGCGGGGGG
B18: bFGF-PQS16 (ssDNA)
DNA: GGCGAGCCGGCGGCCCGGGACCTGGG
B19: ApoE4-PQS7 (structured_DNA)
DNA: GGCTGGTGGAGAAGGTGCAGG
B20: ApoE4-PQS4 (structured_DNA)
DNA: GGAGCGGGCCCAGGCCTGGG
B21: ApoE4-PQS6 (structured_DNA)
DNA: GGACGAGGTGAAGGAGCAGG
B22: ApoE4-PQS5 (structured_DNA)
DNA: GGATGGAGGAGATGGGCAGCCGG
B23: ApoE4-PQS2 (structured_DNA)
DNA: GGCCCGGCTGGGCGCGG
B24: ApoE4-PQS3 (structured_DNA)
DNA: GGCCCCTGGTGGAACAGGG
B25: aFGF-PQS17 (ssDNA)
DNA: GGAAATGAGGCAGAGGGGGAGTAAGG
B26: aFGF-PQS9 (ssDNA)
DNA: GGCCAGGACAGGGTAAGG
B27: aFGF-PQS10 (ssDNA)
DNA: GGCTAGAAGGTGGGGAATAAGG
B28: aFGF-PQS6 (ssDNA)
DNA: GGGAGAGGGACGGGCCGTGG
B29: aFGF-PQS13 (ssDNA)
DNA: GGCATGGTATCTGGAGGCAGG
B30: aFGF-PQS14 (ssDNA)
DNA: GGGCTGGAGGGGGCAGG
B31: aFGF-PQS11 (ssDNA)
DNA: GGGCTTGGCTCTGGGGATGG
B32: aFGF-PQS1 (ssDNA)
DNA: GGAGAACAGGAAGGCGGGGGTGAGGG
B33: aFGF-PQS8 (ssDNA)
DNA: GGTTGGGACTGGCGAGG
B34: aFGF-PQS3 (ssDNA)
DNA: GGAGACGGTAGGGCAAAGTGG
B35: aFGF-PQS22 (ssDNA)
DNA: GGATGGGACAAGGGACAGG
B36: aFGF-PQS15 (ssDNA)
DNA: GGCCTGCAGGACTCTGGGAGG
B37: aFGF-PQS20 (ssDNA)
DNA: GGGAAGGAGGGAGGAAGGGAGGGAGGG
B38: aFGF-PQS21 (ssDNA)
DNA: GGTCCCAGGCCTGGGAGGG
B39: aFGF-PQS19 (ssDNA)
DNA: GGTGGAGGAAAGG
B40: aFGF-PQS4 (ssDNA)
DNA: GGTGGGTGGGTATGG
B41: aFGF-PQS16 (ssDNA)
DNA: GGGCAAAGGTCCTAGGGTGGGGG
B42: aFGF-PQS18 (ssDNA)
DNA: GGGAGGTTAGGGTTGG
B43: aFGF-PQS2 (ssDNA)
DNA: GGAGAGGGTAGAGTGGGATGGG
B44: aFGF-PQS7 (ssDNA)
DNA: GGTGGGGGGGG
B45: aFGF-PQS5 (ssDNA)
DNA: GGCACTGGAGGAATGG
B46: aFGF-PQS12 (ssDNA)
DNA: GGGTGGTGTGGGAGTGG
B47: aFGF-PQS23 (ssDNA)
DNA: GGTGGGAGGAAGG
B48: HBEGF-PQS2 (structured_DNA)
DNA: GGAGGCGGCGAGG
B49: HBEGF-PQS4 (ssDNA)
DNA: GGGCGGCGGAGCTCAGG
B50: HBEGF-PQS7 (ssDNA)
DNA: GGCGGGCGGCAGACGGTGCCCGG
B51: HBEGF-PQS12 (structured_DNA)
DNA: GGTCAGGGGTCTGGGCGGG
B52: HBEGF-PQS1 (structured_DNA)
DNA: GGGAGGGTCCGGGTTGCTGG
B53: HBEGF-PQS11 (ssDNA)
DNA: GGACGGGCGTCGGCATCGG
B54: HBEGF-PQS14 (ssDNA)
DNA: GGAGGCGGCCGG
B55: HBEGF-PQS6 (ssDNA)
DNA: GGCGCGCGGGGTCGGGCGGCCGCGCGGG
B56: HBEGF-PQS5 (ssDNA)
DNA: GGCCGGGAATAAGGCTCCAGG
B57: HBEGF-PQS10 (ssDNA)
DNA: GGCACGGGCCACTTGGTGGGG
B58: HBEGF-PQS3 (ssDNA)
DNA: GGCGGCCACTGGGCGCTGG
B59: HBEGF-PQS13 (ssDNA)
DNA: GGAGCGGCTTCGGAGAGG

Chain of aFGF (P05230 16-155): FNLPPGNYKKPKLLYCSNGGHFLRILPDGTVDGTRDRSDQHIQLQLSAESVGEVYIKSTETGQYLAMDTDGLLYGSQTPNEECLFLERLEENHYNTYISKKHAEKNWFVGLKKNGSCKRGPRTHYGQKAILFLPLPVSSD
Chain of ApoE4 (P02649 19-317 C130R): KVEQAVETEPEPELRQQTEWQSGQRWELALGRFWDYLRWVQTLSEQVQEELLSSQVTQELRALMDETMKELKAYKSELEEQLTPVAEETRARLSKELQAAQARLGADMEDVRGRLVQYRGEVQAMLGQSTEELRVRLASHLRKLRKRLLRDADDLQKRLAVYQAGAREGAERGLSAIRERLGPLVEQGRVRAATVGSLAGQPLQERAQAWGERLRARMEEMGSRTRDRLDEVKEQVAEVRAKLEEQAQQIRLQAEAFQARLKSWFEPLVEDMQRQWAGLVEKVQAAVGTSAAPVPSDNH

In one data set the target is bFGF (UniProt P09038 143-288). Nature of the data set: SPR.
Chain of bFGF (P09038 143-288): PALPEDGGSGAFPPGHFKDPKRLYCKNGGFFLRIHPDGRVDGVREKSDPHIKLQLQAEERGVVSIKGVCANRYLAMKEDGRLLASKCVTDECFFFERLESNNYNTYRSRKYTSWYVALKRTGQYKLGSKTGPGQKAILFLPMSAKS
Consider B1, for which the binding result is listed as “no binding”. The same measure, in the same setting: for B2 the value was “no binding”; for B3, “no binding”. With B4, the binding result is “no binding”. On the same count and under the same terms, for B5 the value was “no binding”.

Consider B6, for which the binding result is on record as “no binding”. For B7, the binding result is recorded as “no binding”. Still for that read-out and setting: for B8 the value was “no binding”; for B9, “no binding”. On to B10, for which the binding result is “no binding”.

For B11, the binding result is reported as “no binding”. For B12, the binding result was “no binding”. For B13, the binding result is “no binding”.

B14: the binding result was “no binding”. For B15, the binding result is given as “no binding”. In the case of B16, the binding result is “no binding”.

For the molecule B17, the binding result is on record as “no binding”. Same read-out and setting: for B18 the value was “no binding”.

Another data set addresses ApoE4 (UniProt P02649 19-317, C130R). Nature of the data set: SPR.
B19: the binding result is reported as “no binding”.

Regarding B20, the binding result was “no binding”. Same read-out and setting: under B21 stands “no binding”; under B22, “no binding”; under B23, “no binding”. Same read-out and setting: for B24 the value was “no binding”.

Another data set addresses aFGF (UniProt P05230 16-155). Nature of the data set: SPR. (In general: SPR reads the build-up and loss of mass on a sensor chip optically.)
Consider B25, for which the binding result is “no binding”.

For the molecule B26, the binding result is listed as “no binding”. On the same count and under the same terms, for B27 the value was “no binding”; for B28, “no binding”; for B29, “no binding”. Turning to B30, the binding result is “no binding”. The same measure, in the same setting: under B31 stands “no binding”; under B32, “no binding”; under B33, “no binding”. The same measure, in the same setting: for B34 the value was “no binding”.

For B35, the binding result is “no binding”.

Turning to B36, the binding result is reported as “no binding”. Same read-out and setting: under B37 stands “no binding”. On the same count and under the same terms, under B38 stands “no binding”. Still for that read-out and setting: under B39 stands “no binding”; under B40, “no binding”; under B41, “no binding”. As for B42, the binding result is listed as “no binding”. On the same count and under the same terms, for B43 the value was “no binding”; for B44, “no binding”. The same measure, in the same setting: under B45 stands “no binding”; under B46, “no binding”; under B47, “no binding”.

The target of another data set is HB-EGF (UniProt Q99075 63-148). Nature of the data set: SPR.
Chain of HB-EGF (Q99075 63-148): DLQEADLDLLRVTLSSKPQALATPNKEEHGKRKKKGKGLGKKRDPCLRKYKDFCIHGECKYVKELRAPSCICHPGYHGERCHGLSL
On to B48, for which the binding result is recorded as “no binding”. Same read-out and setting: for B49 the value was “no binding”; for B50, “no binding”; for B51, “no binding”. Same read-out and setting: under B52 stands “no binding”. Still for that read-out and setting: for B53 the value was “no binding”. For the molecule B54, the binding result is recorded as “no binding”. With B55, the binding result was “no binding”. Take B56: the binding result was “no binding”. With B57, the binding result is listed as “no binding”. The same measure, in the same setting: under B58 stands “no binding”; under B59, “no binding”.
